Data on one molecule can be found in patent US20140031525A1, “MUTANT G-PROTEIN COUPLED RECEPTOR PROTEINS AND METHODS FOR PRODUCING THEM” (Heptares Therapeutics Limited, priority 2011, published 2014).

Series [1] is described as follows: Thermostability assay of detergent-solubilised receptor by [3H]-ZM241385 binding. The settings on record: in 0.1% decylmaltoside, 30 min heating. The series is classed as physicochemical, human. Here is the method:
FIG. 1: Thermostability of the adenosine A2A receptor alone, in combination with T4 lysozyme fusion or with thermostabilising mutations. Receptors were solubilised from transiently transfected cells using 0.025% DDM. Samples were heated at the specified temperature for 30 minutes, quenched on ice and the amount of receptor remaining was determined by a single-point binding assay using 100 nM [^3H]-ZM-241,385. Data is shown for the wild type A2a receptor (circles), A2A-T4L (squares), A2A-StaR1 (previously Rant21, upright triangles), A2A-T4 engineered to include the A2A-StaR1 mutations in combination with the T4L fusion (A54L^2.52/T88A^3.36/K122A^4.43 N239A^6.41) (inverted triangles) and vs A2a-StaR2 (diamonds).
Transfected HEK293T cells were resuspended in ice cold buffer [50 mM Tris pH7.4; 400 mM NaCl; 1% DDM and protease inhibitors (Complete, Roche)]. After incubation for 1 h at 4° C., samples were centrifuged (16,000×g, 20 min, 4° C.) and the supernatant was detergent exchanged into 0.1% decylmaltoside (DM) from Ni-NTA resin.
Thermostability was assessed by incubating with [^3H]-ZM241385 radioligand (100 nM) at increasing temperatures for 30 min followed by a 5 minutes incubation on ice. Receptor bound and free radioligand were separated by gel filtration as previously described'

In series [2] the test system is G proteins. Kind of series: G protein activation by the engineered receptor. The series is classed as biochemical.

B1: A2A-StaR2: human adenosine A2A receptor with mutations A54L, T88A, K122A, V239A, R107A, L202A, L235A, S277A (protein, UniProt P29274 1-412, looked up, variant A54L T88A K122A V239A R107A L202A L235A S277A)
Adenosine receptor A2a: MPIMGSSVYITVELAIAVLAILGNVLVCWAVWLNSNLQNVTNYFVVSLAAADILVGVLAIPFAITISTGFCAACHGCLFIACFVLVLAQSSIFSLLAIAIDRYIAIAIPLRYNGLVTGTRAAGIIAICWVLSFAIGLTPMLGWNNCGQPKEGKNHSQGCGEGQVACLFEDVVPMNYMVYFNFFACVLVPLLLMLGVYLRIFAAARRQLKQMESQPLPGERARSTLQKEVHAAKSAAIIAGLFALCWLPLHIINCFTFFCPDCSHAPLWLMYLAIVLAHTNSVVNPFIYAYRIREFRQTFRKIIRSHVLRQQEPFKAAGTSARVLAAHGSDGEQVSLRLNGHPPGVWANGSAPHPERRPNGYALGLVSGGSAQESQGNTGLPDVELLSHELKGVCPEPPGLDDPLAQDGAGVS
As to B1, in series [1], the apparent thermostability came out at 47 °C. Also, the G protein activation result in series [2] was “no longer activated G proteins”.
